Among the data in the supplement of paper PMC11502859 are median enrichment values, retold here.
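Note: lentiviral eGFP-IRES-mCherry reporter pool sorted by FACS 96 h post-transduction, gated on mCherry-high cells, Illumina read counts normalized per million, median across four biological replicates.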

The test system of this series is HEK293T. The series can be described thus: median enrichment of reporter reads in eGFP-reduced (low/intermediate) vs eGFP-high sorted cells (eGFP-extension fusion abundance) (ratio); higher = stronger loss of eGFP-fusion protein abundance (more destabilising extension).
Regarding ENSSSTMDFRLLVAVLT [ELF2], the median enrichment amounted to 7.29.
Under YMILKPETI [TRIP11] stands 4.3.
To LKNCLEELY [EBF1] belongs 2.5; to SEVIFL [CES5A], 1.39; to SAVKFF [INTS8], 0.917.
In the case of “WMSMSEGKENFGHQNPAPSELKELIYFMKLILLCVCSWC [GALNT15]”, the median enrichment came to 26.8.
In the case of KKKKKKKKKK [Lys10], the median enrichment was found to be 1.08.
Take WWWWWWWWWW [Trp10]: the median enrichment is 4.65.
Under “CAAQTEAQAQGRNLEQGHFGHSRTGERQLYFSLGQLQRVGQALMGSDCQSDAVGPRQRKAGRRGARTFSPHCPFPFSGEHRRL [C16orf58]” stands 4.54; under QYT [ZMYM5], 0.736; under YKKRCCLGLVGGACFS [HIGD1A], 3.33.
In the case of “CNDKSRSKEIVGPKGKEGKSAPRLGPGTHTPPDHLGNSRALRSRMLTKSNIQSLVNQDAVSPSVWQSVALAAGKLKADFHSYV [RNF150]”, the median enrichment amounted to 4.3.
With “QGQVICSLSAFTPFNSLTPCQTYLSGTSSPDTFQRREKK [CREBZF]”, the median enrichment came to 4.04.
Regarding WSPLSRDSGKGGFLHPTPLLPWL [KIAA1191], the median enrichment came to 5.6.
With QKILPSLVVGTDRIHLTQTSSFTDFNYLFLKT [WSB1], the median enrichment amounted to 2.9.
Under “YNMTYSYSSLLSPLYSFFFNIFMTFKSLLYSLARKCTFFLLV [ADAMTS12]” stands 4.84; under SHVRNLSIK [AGTR1], 0.587.
To WHPCTQEDSAFTKHFHCLAKV [GPR12] belongs 11.3; to LNRQDRLWERGSFHKRKMVGLFPE [C10orf53], 7.23.
Take “EVQPACSCIQKPATTQPISACAYPDKKTKIPLGKTQALTLLFKWPLQKV [TPD52L1]”: the median enrichment is 13.
Regarding QIQGHK [RILPL2], the median enrichment came out at 0.367.
On to EKYHLPYAARDLQTFFLPFW [SPAG11A], for which the median enrichment is 6.64.
To KDCDFFVKEAVRIIINNSNSLHFSQGVHCS [MAATS1] belongs 5.42; to SKRGHMESGGHLDD [PTGR1], 0.345.
For SECTLQSWWFLRVGLDRVAAC [BPHL], the median enrichment was 7.67.
On to IIIIIIII [Ile08], for which the median enrichment came out at 5.38.
Take LCFAEIFCSLRISETYL [SIM1]: the median enrichment stood at 7.43.
In the case of “RASPAHCQGRRGPDQGPRGLRAPPLSPPQCLRGPEPPPVPAAPLPQGPAMPHPGLKFCKVLRGPEHVSATRGSGQHCVLRLVS [SLC29A4]”, the median enrichment was found to be 8.55.
On to YVFVIFNCSML [CRISP1], for which the median enrichment stood at 8.9.
Regarding RKSNASRLSEA [VHLL], the median enrichment was 0.269.
In the case of LILKLHPQ [BZW1], the median enrichment was determined as 4.65.
For RLMW [KRTAP13-3], the median enrichment is 3.36.
For the substance YEHLDQVEKGTLSLVCGKQHLQEI [XKR6], the median enrichment stood at 0.3.
As to “STARIKNMFPCLSDTSLLDEARKIYMKILKIHIADFMEWTSCISTEKQQHNNTKILGTLK [CDKN1B]”, the median enrichment was determined as 38.1.
Regarding LQPIYLFISLWGLTH [GUCY1A1], the median enrichment stood at 15.3.
With LVW [ZNF160], the median enrichment amounted to 1.8.
Take “CQVLCGAEIPCRHFACSNQQDPAPRSPGAIIMQPAVLLWRGQVTFQKTPSWMGLPFCSSPHSRISNGSLL [BCL2L11]”: the median enrichment turned out to be 11.
With QNTFLL [CFAP97], the median enrichment is 0.56.
Regarding “SEMMSCPGPMATRTLQATLLCDQARIPGAGLRGLNGPSGTQVGLSTLSPTTQPTALK [TMEM54]”, the median enrichment is 0.763.
On to “YGRIMACLSPFLLQIKFSTHSFLLQIKFSTHSFFNTVL [OR2AG2]”, for which the median enrichment stood at 49.9.
To “WRATGPQQCEGSLAAHPAAGAQPLPGMRLSADGETATQSFGLCVCVCVCVCVCAHPRVPVCVRILPPGAEVPWVSPLLCNGLL [FGFR3]” belongs 3.69; to “YALPSWPLISAWVDHPRLQRVEGGSSSWESF [TMEM214]”, 7.05.
